# Results from patent US20230039157A1.
# T1: TF219
# T1 chain: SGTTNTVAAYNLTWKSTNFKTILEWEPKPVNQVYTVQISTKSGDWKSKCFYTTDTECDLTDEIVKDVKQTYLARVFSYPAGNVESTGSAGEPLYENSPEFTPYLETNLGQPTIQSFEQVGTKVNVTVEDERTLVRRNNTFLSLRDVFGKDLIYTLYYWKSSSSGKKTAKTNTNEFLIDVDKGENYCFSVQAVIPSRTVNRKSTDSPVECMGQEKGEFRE
# B1: Factor VIIa (protein)
# chain: ANAFLEELRPGSLERECKEEQCSFEEAREIFKDAERTKLFWISYSDGDQCASSPCQNGGSCKDQLQSYICFCLPAFEGRNCETHKDDQLICVNENGGCEQYCSDHTGTKRSCRCHEGYSLLADGVSCTPTVEYPCGKIPILEKRNASKPQGRIVGGKVCPKGECPWQVLLLVNGAQLCGGTLINTIWVVSAAHCFDKIKNWRNLIAVLGEHDLSEHDGDEQSRRVAQVIIPSTYVPGTTNHDIALLRLHQPVVLTDHVVPLCLPERTFSERTLAFVRFSLVSGWGQLLDRGATALELMVLNVPRLMTQDCLQQSRKVGDSPNITEYMFCAGYSDGSKDSCKGDSGGPHATHYRGTWYLTGIVSWGQGCATVGHFGVYTRVSQYIEWLQKLMRSEPRPGVLLRAPFP
# Assays:
# [1] = biological target: IL-2Rβ and common γ chain on 32Dβ cells; assay: cell-based or functional assay
# [2] = biological target: IL-2Rα, IL-2Rβ and common γ chain on CTLL-2 cells; assay: cell-based or functional assay
# [3] = biological target: 18t15-12s multi-chain chimeric polypeptide
# [4] = biological target: 21t15-7s multi-chain chimeric polypeptide
# [5] = biological target: 21t15-TGFRs multi-chain chimeric polypeptide
# TF219 = biological target: T1, TF219
# [6] = biological target: mouse (m)21t15 multi-chain chimeric polypeptide
Molecule,"EC50 of 32Dβ cell proliferation (WST1, absorbance at 450 nM) [1] [pM]","EC50 of CTLL-2 cell proliferation (WST1, absorbance at 450 nM) [2] [pM]",FX activation measured by FXa activity (chromogenic substrate S-2765) [3],FX activation measured by FXa activity (chromogenic substrate S-2765) [4],FX activation measured by FXa activity (chromogenic substrate S-2765) [5],FX activation measured by FXa activity (chromogenic substrate S-2765) (TF219),FX activation measured by FXa activity (chromogenic substrate S-2765) [6]
recombinant IL-15 (from UniProt P40933 49-162) (ligand),1.6,,,,,,
recombinant IL-2 (from UniProt P60568 21-153) (ligand),140,548,,,,,
B1,,,TF219 and TF219-containing multi-chain chimeric polypeptides had very low FX activation activity,TF219 and TF219-containing multi-chain chimeric polypeptides had very low FX activation activity,TF219 and TF219-containing multi-chain chimeric polypeptides had very low FX activation activity,TF219 and TF219-containing multi-chain chimeric polypeptides had very low FX activation activity,TF219 and TF219-containing multi-chain chimeric polypeptides had very low FX activation activity
